Reference: patent publication US20040049800A1, “Rapid methods for assessing therapeutic activity using animals expressing constitutively active G protein coupled receptors” (priority 2002, published 2004)
Where a chain is given by its changes, count along the chain named.

Legend:
[1] = system: SMS-Luc reporter in HEK293 cells; test: SMS-Luc luciferase reporter assay of MC-4 receptors in HEK293 cells; type: cell-based
Procedure: (§1) Briefly, HEK293 cells were cotransfected, as described above, with an expression vector encoding either the wild-type MC-4 receptor or the Asp146Met mutant MC-4 receptor and the reporter construct, SMS-Luc. As a negative control, cells were transfected with SMS-Luc and pcDNA1. Basal and ligand (αMHS) induced activity of the negative control, the wild-type MC-4 receptor, and the Asp146Met mutant MC-4 receptor were measured using the luciferase assay described above. […] Other constitutively active MC-4 receptors may be generated by this or any other approach and introduced as transgenics into animals of the invention

cAMP production = test: basal level cAMP production of MC-4 receptor mutant; type: cell-based; conditions: FIG. 2
Text: FIG. 2 is a graph showing the constitutive activity of a D146M MC-4 receptor mutant as assayed by measuring basal level cAMP production.
as §1

[2] = target: wild-type rat mu opioid receptor (rat) (UniProt P33535); test: cell-based or functional assay
[3] = target: Asn150Ala mutant rat mu opioid receptor (rat) (UniProt P33535); test: cell-based or functional assay
[4] = system: phospholipase C-mediated production of inositol phosphate in COS-7 cells; conditions: absence of agonist; cited from earlier work
[5] = system: SMS-Luc reporter in HEK293 cells; test: SMS-Luc luciferase reporter assay of CCK-BR receptors in HEK293 cells; type: cell-based; conditions: FIG. 3
Procedure: In addition to these studies, luciferase assays were performed to measure the constitutive activity of the Leu325Glu CCK-BR mutant. HEK293 cells were transfected (as described above) with SMS-Luc and an expression vector encoding any one of pcDNA1, wild-type CCK-BR, or Leu325Glu CCK-BR.

[6] = system: SRE-Luc + Gq5i reporter in HEK293 cells; test: SRE-Luc/Gq5i luciferase reporter assay in transfected HEK293 cells; type: cell-based; conditions: for stimulation of basal level activity: Asn150Ala mutant versus wild-type receptor; for Ligand Induced Activity (Light Emission) / Basal Activity (Light Emission): HEK293 cells; for Ligand Induced Activity (Light Emission): ligand DAMGO; for Basal Activity (Light Emission): no ligand
Procedure: Constitutive activity of the Asn150Ala mutant rat mu opioid receptor was assessed using a luciferase assay. The rat mu opioid receptor is a Gαi coupled receptor. Therefore we chose to use the Gq5i reporter system, described in detail above (Broach and Thorner, supra), which switches the signaling pathway from Gαi to Gαq for reliable positive readout. HEK293 cells were transfected with the reporter construct SRE-Luc, an expression vector containing nucleic acid encoding Gq5i (Broach and Thorner, supra), and an expression vector containing nucleic acid encoding either the wild-type or the Asn150Ala mutant rat mu opioid receptor. Basal and ligand-stimulated luciferase activity was measured. The ligand used in this assay was [D-Ala^2-MePhe^4, Gly-ol^5]enkephalin] (DAMGO). As a negative control, HEK293 cells were transfected with pcDNA1 (empty vector DNA), SRE-Luc, and the expression vector containing nucleic acid encoding Gq5i (Broach and Thorner, supra).
The luciferase assay was carried out as follows. On day 1, HEK293 cells in a T75 flask were washed with 15 ml serum-free media (or PBS), trypsinized with 5 ml 0.05% trypsin-EDTA (Gibco #25300-062), incubated at 37° C. for 3 minutes at which time 6-7 ml complete HEK293 media (Gibco #12100-046) and 10% Fetal Bovine Serum (Intergen #1050-90) were added. Thereafter, cells were collected in 50 ml centrifuge tubes, pelleted at 800-900 rpm (RCF ˜275), and resuspend in 20 ml complete media. The cells were counted using a haemocytometer and diluted to 85,000 cells/ml in complete media. Using a repeat pipettor or cell plater, 100 μl of cells were added to each well of a Primaria 96-well plate (Falcon #353872). Cells were then incubated at 37° C., 5% CO2 until use at 48 hours.
On day 3, cells were transfected using LipofectAMINE™ according to the manufacturer's protocol (Gibco #18324-012, Rockville, Md.).
On day 4, cells were stimulated as follows. Ligands for the receptor, either DAMGO or a non-peptide ligand (e.g., naloxone or naltrexone), were diluted to a desired concentration in serum-free media containing 0.15 mM PMSF (or other protease inhibitor(s)). The transfection media was then completely removed from cells and 50-100 μl stimulation media (i.e., media containing candidate ligands or the corresponding ligand free solvent) was added to each well. The cells were incubated for the desired time (standard is overnight) at 37° C., 5% CO2, although the optimal stimulation time may vary depending on the particular receptor used. The optimal incubation time may be determined systematically by testing a range of incubation times and determining which one yields the highest level of stimulation. For concomitant assessment of two ligands (e.g., ligand induced inhibition of forskolin stimulated CRE activity) each stimulus is prepared at two times the desired final concentration and mixed in equal volumes prior to addition to cells.
On day 5, an assay for luciferase expression was carried out according to the manufacturer's instructions (Packard, Meridin, Conn.)

## Asp146Met mutant MC-4 receptor: melanocortin-4 receptor with Asp at position 146 of the DRY motif replaced by Met
[1]
  basal level activity versus wild-type MC-4 receptor: higher basal level activity than its wild-type counterpart
cAMP production
  constitutive activity in cAMP assay: exhibited constitutive activity

## [D-Ala^2-MePhe^4, Gly-ol^5]enkephalin (peptide)
[2]
  Ligand Induced Activity (Light Emission), SRE-Luc + Gq5i luciferase reporter in HEK293 cells (Light Emission): 87500
[3]
  Ligand Induced Activity (Light Emission), SRE-Luc + Gq5i luciferase reporter in HEK293 cells (Light Emission): 87000

B1: Leu325Glu CCK-BR mutant: human CCK-BR with point mutation Leu325Glu in the third intracellular loop; constitutively active (protein, UniProt P32239 1-447, looked up, variant L325E)
Gastrin/cholecystokinin type …: MELLKLNRSVQGTGPGPGASLCRPGAPLLNSSSVGNLSCEPPRIRGAGTRELELAIRITLYAVIFLMSVGGNMLIIVVLGLSRRLRTVTNAFLLSLAVSDLLLAVACMPFTLLPNLMGTFIFGTVICKAVSYLMGVSVSVSTLSLVAIALERYSAICRPLQARVWQTRSHAARVIVATWLLSGLLMVPYPVYTVVQPVGPRVLQCVHRWPSARVRQTWSVLLLLLLFFIPGVVMAVAYGLISRELYLGLRFDGDSDSDSQSRVRNQGGLPGAVHQNGRCRPETGAVGEDSDGCYVQLPRSRPALELTALTAPGPGSGSRPTQAKELAKKRVVRMLLVIVVLFFLCWLPVYSANTWRAFDGPGAHRALSGAPISFIHLLSYASACVNPLVYCFMHRRFRQACLETCARCCPRPPRARPRALPDEDPPTPSIASLSRLSYTTISTLGPG
[4]
  agonist-independent constitutive activity (inositol phosphate production): triggers constitutive production of inositol phosphates to levels exceeding wild-type CCK-BR
[5]
  basal level activity compared to wild-type CCK-BR: increased basal level activity compared to the wild-type CCK-BR

B2: Asn150Ala rat mu opioid receptor: rat mu opioid receptor with Asn150Ala point mutation at position 150 of SEQ ID NO: 1; constitutively active (protein, listed as Rattus norvegicus)
chain: MDSSTGPGNTSDCSDPLAQASCSPAPGSWLNLSHVDGNQSDPCGLNRTGLGGNDSLCPQTGSPSMVTAITIMALYSIVCVVGLFGNFLVMYVIVRYTKMKTATNIYIFNLALADALATSTLPFQSVNYLMGTWPFGTILCKIVISIDYYAMFTSIFTLCTMSVDRYIAVCHPVKALDFRTPRNAKIVNVCNWILSSAIGLPVMFMATTKYRQGSIDCTLTFSHPTWYWENLLKICVFIFAFIMPILIITVCYGLMILRLKSVRMLSGSKEKDRNLRRITRMVLVVVAVFIVCWTPIHIYVIIKALITIPETTFQTVSWHFCIALGYTNSCLNPVLYAFLDENFKRCFREFCIPTSSTIEQQNSTRVRQNTREHPSTANTVDRTNHQLENLEAETAPLP
[6]
  stimulation of basal level activity: *6.5-fold stimulation of basal level activity.
  Ligand Induced Activity (Light Emission): 86,996
  Basal Activity (Light Emission): *56,498
[6]; listed as Asn150Ala mutant mu opioid receptor
  stimulation of basal level activity: approximately 6.5 fold

B3: wild-type rat mu opioid receptor: wild-type rat mu opioid receptor (SEQ ID NO: 1), Gαi coupled receptor, comparator (protein, listed as Rattus norvegicus)
chain: B2 chain with A150N
[6]
  Ligand Induced Activity (Light Emission): 87,461
  Basal Activity (Light Emission): 8,436
